Data published in paper PMC6624373.

Target: lamin A R7/8E double mutant (human) (UniProt P02545)
Assay: rotary metal shadowing EM; in vitro assembly assay: after dialysis into 25 mM MES, 150 mM NaCl, 1 mM DTT, 1 mM EGTA pH 6.5, 30% glycerol; dimers scored as singular or incorporated into head-to-tail oligomers

lamin A R7/8E double mutant (from UniProt P02545 1-646) (natural protein)
stoichiometry N: 2
